The subject of this data set is T1, KZ-sarcin recombinant protein.
T1 sequence: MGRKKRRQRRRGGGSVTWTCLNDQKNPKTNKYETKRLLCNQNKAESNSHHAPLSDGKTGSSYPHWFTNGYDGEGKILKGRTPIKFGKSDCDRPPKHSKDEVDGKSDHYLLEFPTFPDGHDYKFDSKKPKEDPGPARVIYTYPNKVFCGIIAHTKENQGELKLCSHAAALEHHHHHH

Regarding caspase-3 (Sigma Chem. Co, U.S.A.), the “hydrolysis of KZ-sarcin by caspase-3, SDS-PAGE (room temperature, 15 minutes)” value was “KZ-sarcin recombinant protein was hydrolyzed by caspase-3 into two fragments of 12 kb and 8.5 kb”.

Source of the values: patent US20170152293.
